In CN116102649A (SHANGHAI INST OF BIOLOGICAL PRODUCTS CO LTD, dated 2023):
Changes are numbered by the printed parent chain. Names and notes keep the numbering of the source. One block for each binder: values may come before it.

Columns and labels:
[1] = molecular target: T1, 人CLDN18.2 (claudin-18 isoform 2 [Homo sapiens], NP_001002026.1) (human); assay: cell ELISA on fixed NUGC4 cells (endogenous human CLDN18.2)
T1 construct: Full-length gene cloned into pEGFP-N2 and stably expressed on HEK293 cells (HEK293-hCLDN18.2); also called hCLDN18.2; HEK293-hCLDN18.2

[2] = molecular target: T1, 人CLDN18.2 (claudin-18 isoform 2 [Homo …); assay: cell-based or functional assay
[3] = molecular target: T1, 人CLDN18.2 (claudin-18 isoform 2 [Homo …); assay: cell ELISA on fixed HEK293-hCLDN18.2 cells
[4] = molecular target: T2, 人CLDN18.1 (claudin-18 isoform 1 precursor [Homo sapiens], NP_057453.1) (human, UniProt P56856 1-261); assay: flow cytometry on HEK293-hCLDN18.1 cells
T2 construct: Full-length gene in pEGFP-N2, stably expressed on HEK293 cells (HEK293-hCLDN18.1); also called hCLDN18.1; HEK293-hCLDN18.1
T2 sequence: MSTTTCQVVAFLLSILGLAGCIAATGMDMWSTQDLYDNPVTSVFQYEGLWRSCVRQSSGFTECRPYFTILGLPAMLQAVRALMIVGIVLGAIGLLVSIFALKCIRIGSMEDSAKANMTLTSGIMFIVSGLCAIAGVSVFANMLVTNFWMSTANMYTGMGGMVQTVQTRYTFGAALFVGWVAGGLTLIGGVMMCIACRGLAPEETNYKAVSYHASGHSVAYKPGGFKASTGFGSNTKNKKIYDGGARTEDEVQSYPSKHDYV

[5] = molecular target: T1, 人CLDN18.2 (claudin-18 isoform 2 [Homo …); assay: flow cytometry on HEK293-hCLDN18.2 cells, MFI against concentration
[6] = molecular target: T1, 人CLDN18.2 (claudin-18 isoform 2 [Homo …); assay: cell-based or functional assay; remark: listed apart in the source

- EC50 [1]: 0.57 µg/mL
- ADCC reporter gene assay (Jurkat/NFAT-luc+FcγRIIIa) on HEK293-hCLDN18.2 cells, EC50 [2]: 0.0476 µg/mL
- EC50 [3]: 0.0173 µg/mL
- 相对结合活性 (relative to Ref.ch175) [3]: 180%
- binding result [4]: no binding
- EC50 [5]: 0.81 µg/mL
- CDC on HEK293-hCLDN18.2 cells (rabbit complement, CCK-8), EC50 [6]: 0.0309 µg/mL
B1: 嵌合抗体ch782 (antibody, V domains shown)
VH: DVQLQESGPDLVKPSQSLSLTCTVTGYSITSGYSWHWIRQFPGNKLEWMGYIHYSDNTNYSPSLKSRISITRDTSKNQFFLQLNSVTTEDTATYYCARIYYGNSFVYWGQGTLVTVSA
VL: DIVMTQSPSSLTVTAGEKVTMSCKSSQSLLNSGNQKNYLTWYQQKPGQPPKLLIYWASTRESGVPDRFTGSGSGTDFTLTINSVQAEDLAVYYCQNDYFYPYTFGGGTKLEIK

- EC50 [3]: 0.0392 µg/mL
- 相对结合活性 (relative to Ref.ch175) [3]: 79.3%
- binding result [4]: no binding
B2: 嵌合抗体ch624 (antibody, V domains shown)
VH: QVQLQQPGAELVRPGASVKLSCKASGYSFTSYWMNWVKQRPGQGLEWIGMIHPSDSETRLNQKFKDKATLTVDKSSSTAYMQLSSPTSEDSAVYYCARTSYGNSFAYWGQGTLVTVSA
VL: B1 VL with N82S, F99S, Y102F, G106S

- ADCC reporter gene assay on HEK293-hCLDN18.2 cells, EC50 [6]: 0.0709 µg/mL
- CDC on HEK293-hCLDN18.2 cells (rabbit complement, CCK-8), EC50 [6]: 0.0476 µg/mL
B3: 人源化抗体hu782-HV (H1.2-V101A L2组合) (antibody, human IgG1, V domains shown)
VH: QVQLQESGPGLVKPSETLSLTCTVSGYSITSGYSWHWIRQPPGKGLEWMGYIHYSDNTNYAPSLKSRITISRDTSKNQFSLKLSSVTAADTAVYYCARIYYGNSFAYWGQGTLVTVSS
VL: DIVMTQSPDSLAVSLGERATINCKSSQSLLNSGNQKNYLTWYQQKPGQPPLLIYWASTRESGVPDRFSGSGSGTDFTLTISSLQAEDVAVYYCQNDYFYPYTFGGGTKLEIK
